B1: unmodified mature human MP52 (ligand)
chain: PLATRQGKRPSKNLKARCSRKALHVNFKDMGWDDWIIAPLEYEAFHCEGLCEFPLRSHLEPTNHAVIQTLMNSMDPESTPPTCCVPTRLSPISILFIDSANNVVYKQYEDMVVESCGCR
B2: recombinant mature human BMP-2 (ligand)
chain: QAKHKQRKRLKSSCKRHPLYVDFSDVGWNDWIVAPPGYHAFYCHGECPFPLADHLNSTNHAIVQTLVNSVNSKIPKACCVPTELSAISMLYLDENEKVVLKNYQDMVVEGCGCR

Molecular target: BMP receptors

Row | Binder | ALPase activity in MC3T3-E1 cells (times higher than the control group) | ALPase activity in C3H10T 1/2 cells (times higher than the control group)
1 | B1 | 3 | 
2 | B2 |  | 40

Reference: US7132397B1
